# Measured values as given in patent US20140080757A1 (ZEALAND PHARMA A S, published 2014).
# Read-outs that look alike come from different tables or passages of the source. Numbered stars: 1 amine (or outer) side, 2 acyl side, 3 side chain; on linkers, the order of the positions; unused ones are H or OH. Square brackets hold non-standard residues; d marks the D form. Side chains are listed from the residue outwards. * marks the point of attachment. γGlu = O=C(O)[C@H](CCC(=O)[*:2])N[*:1]; Palmitoyl = CCCCCCCCCCCCCCCC(=O)*; Aib = CC(C)(N)C(=O)O
# T1: endogenous GLP-1 receptor of a murine insulinoma cell line (murine, UniProt O35659 22-463)
# T1 sequence (looked up): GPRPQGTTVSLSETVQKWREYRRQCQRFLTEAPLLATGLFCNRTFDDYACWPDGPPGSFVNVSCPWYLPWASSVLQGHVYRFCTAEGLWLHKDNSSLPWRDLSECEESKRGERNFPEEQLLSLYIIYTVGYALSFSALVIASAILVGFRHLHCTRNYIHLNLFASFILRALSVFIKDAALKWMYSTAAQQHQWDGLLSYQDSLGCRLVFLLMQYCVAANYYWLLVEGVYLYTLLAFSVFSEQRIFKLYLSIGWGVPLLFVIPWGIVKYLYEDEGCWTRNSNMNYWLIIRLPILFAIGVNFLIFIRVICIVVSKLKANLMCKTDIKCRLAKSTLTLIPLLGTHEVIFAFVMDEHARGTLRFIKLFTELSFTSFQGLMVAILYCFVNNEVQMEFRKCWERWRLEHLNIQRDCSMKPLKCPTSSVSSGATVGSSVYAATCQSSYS
# Experiments:
# Assay in all cases: cell-based or functional assay
# [1] = target: endogenous glucagon receptor of primary rat hepatocytes (rat, UniProt P30082 27-485)
# Chain of endogenous glucagon receptor of primary rat hepatocytes (P30082 27-485): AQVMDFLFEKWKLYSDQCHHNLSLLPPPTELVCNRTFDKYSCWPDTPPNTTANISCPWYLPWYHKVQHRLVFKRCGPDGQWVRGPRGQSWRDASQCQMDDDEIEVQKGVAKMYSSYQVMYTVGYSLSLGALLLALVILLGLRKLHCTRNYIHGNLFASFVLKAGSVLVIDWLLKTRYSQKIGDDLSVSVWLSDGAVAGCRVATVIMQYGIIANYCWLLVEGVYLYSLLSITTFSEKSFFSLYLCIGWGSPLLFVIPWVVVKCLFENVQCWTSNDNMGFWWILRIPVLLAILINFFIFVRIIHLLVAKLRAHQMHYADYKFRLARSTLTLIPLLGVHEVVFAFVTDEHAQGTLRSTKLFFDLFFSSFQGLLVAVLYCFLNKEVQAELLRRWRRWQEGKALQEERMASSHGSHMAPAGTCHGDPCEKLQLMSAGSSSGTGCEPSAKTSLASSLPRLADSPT
# [2] = target: T1, endogenous GLP-1 receptor of a murine …
# [3] = target: T2, human glucagon-like peptide 1 receptor (GLP-1R) (human, UniProt P43220 24-463)
# [4] = target: T3, human glucagon receptor (Glucagon-R) (human, UniProt P47871 26-477)
# T3 sequence (P47871 26-477): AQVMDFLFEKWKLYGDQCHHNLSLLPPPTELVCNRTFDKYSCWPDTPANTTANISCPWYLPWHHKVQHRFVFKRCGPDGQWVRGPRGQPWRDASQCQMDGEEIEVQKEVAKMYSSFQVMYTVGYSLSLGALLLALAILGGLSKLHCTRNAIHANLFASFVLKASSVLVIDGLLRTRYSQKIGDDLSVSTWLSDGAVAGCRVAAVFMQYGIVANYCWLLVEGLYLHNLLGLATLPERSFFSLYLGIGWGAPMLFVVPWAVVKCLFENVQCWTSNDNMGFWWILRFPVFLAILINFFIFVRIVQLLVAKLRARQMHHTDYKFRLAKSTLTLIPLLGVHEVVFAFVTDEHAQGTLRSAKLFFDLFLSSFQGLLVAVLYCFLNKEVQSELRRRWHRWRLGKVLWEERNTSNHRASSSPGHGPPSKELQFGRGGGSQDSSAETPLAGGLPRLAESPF
# [5] = target: T2, human glucagon-like peptide 1 receptor …; remark: listed apart in the source
# [6] = target: T3, human glucagon receptor (Glucagon-R); remark: listed apart in the source
EC50 GLP-1R Rat hepat. [nM] (inhibition of glycogen synthesis) [1],EC50 GLP-1R (murine insulinoma cells) [nM] (cAMP) [2],EC50 hGLP-1R CHO-K1 [nM] (cAMP) [3],Ratio GLP-1/Glucagon (EC50 hGLP-1R / EC50 hGCGR) [3],EC50 hGCGR CHO-K1 [nM] (cAMP) [4],EC50 hGLP-1R CHO-K1 [nM] (cAMP) [5],Ratio GLP-1/Glucagon (EC50 hGLP-1R / EC50 hGCGR) [5],EC50 hGCGR CHO-K1 [nM] (cAMP) [6],Binder
0.18 nM,0.89 nM,0.23 nM,4.6 ratio,0.05 nM,–,–,–,H-H[Aib]HGTFTSDYSKYLESK([γGlu-Palmitoyl])AAEEFIEWLESA-OH (SMILES CCCCCCCCCCCCCCCC(=O)N[C@@H](CCC(=O)NCCCC[C@H](NC(=O)[C@H](CO)NC(=O)[C@H](CCC(=O)O)NC(=O)[C@H](CC(C)C)NC(=O)[C@H](Cc1ccc(O)cc1)NC(=O)[C@H](CCCCN)NC(=O)[C@H](CO)NC(=O)[C@H](Cc1ccc(O)cc1)NC(=O)[C@H](CC(=O)O)NC(=O)[C@H](CO)NC(=O)[C@@H](NC(=O)[C@H](Cc1ccccc1)NC(=O)[C@@H](NC(=O)CNC(=O)[C@H](Cc1c[nH]cn1)NC(=O)C(C)(C)NC(=O)[C@@H](N)Cc1c[nH]cn1)[C@@H](C)O)[C@@H](C)O)C(=O)N[C@@H](C)C(=O)N[C@@H](C)C(=O)N[C@@H](CCC(=O)O)C(=O)N[C@@H](CCC(=O)O)C(=O)N[C@@H](Cc1ccccc1)C(=O)N[C@H](C(=O)N[C@@H](CCC(=O)O)C(=O)N[C@@H](Cc1c[nH]c2ccccc12)C(=O)N[C@@H](CC(C)C)C(=O)N[C@@H](CCC(=O)O)C(=O)N[C@@H](CO)C(=O)N[C@@H](C)C(=O)O)[C@@H](C)CC)C(=O)O) [Compound 17]
0.18 nM,0.99 nM,0.87 nM,6.2 ratio,0.14 nM,–,–,–,H-HSHGTFTSDYSKYLEEK([γGlu-Palmitoyl])AAHEFIEWLESA-OH (SMILES CCCCCCCCCCCCCCCC(=O)N[C@@H](CCC(=O)NCCCC[C@H](NC(=O)[C@H](CCC(=O)O)NC(=O)[C@H](CCC(=O)O)NC(=O)[C@H](CC(C)C)NC(=O)[C@H](Cc1ccc(O)cc1)NC(=O)[C@H](CCCCN)NC(=O)[C@H](CO)NC(=O)[C@H](Cc1ccc(O)cc1)NC(=O)[C@H](CC(=O)O)NC(=O)[C@H](CO)NC(=O)[C@@H](NC(=O)[C@H](Cc1ccccc1)NC(=O)[C@@H](NC(=O)CNC(=O)[C@H](Cc1c[nH]cn1)NC(=O)[C@H](CO)NC(=O)[C@@H](N)Cc1c[nH]cn1)[C@@H](C)O)[C@@H](C)O)C(=O)N[C@@H](C)C(=O)N[C@@H](C)C(=O)N[C@@H](Cc1c[nH]cn1)C(=O)N[C@@H](CCC(=O)O)C(=O)N[C@@H](Cc1ccccc1)C(=O)N[C@H](C(=O)N[C@@H](CCC(=O)O)C(=O)N[C@@H](Cc1c[nH]c2ccccc12)C(=O)N[C@@H](CC(C)C)C(=O)N[C@@H](CCC(=O)O)C(=O)N[C@@H](CO)C(=O)N[C@@H](C)C(=O)O)[C@@H](C)CC)C(=O)O) [Compound 18]
1.85 nM,0.33 nM,–,–,–,0.2 nM,0.13 ratio,1.58 nM,H-H[Aib]QGTFTSDYSKYLDSK([γGlu-Palmitoyl])AAEDFVEWLESA-NH2 (SMILES CCCCCCCCCCCCCCCC(=O)N[C@@H](CCC(=O)NCCCC[C@H](NC(=O)[C@H](CO)NC(=O)[C@H](CC(=O)O)NC(=O)[C@H](CC(C)C)NC(=O)[C@H](Cc1ccc(O)cc1)NC(=O)[C@H](CCCCN)NC(=O)[C@H](CO)NC(=O)[C@H](Cc1ccc(O)cc1)NC(=O)[C@H](CC(=O)O)NC(=O)[C@H](CO)NC(=O)[C@@H](NC(=O)[C@H](Cc1ccccc1)NC(=O)[C@@H](NC(=O)CNC(=O)[C@H](CCC(N)=O)NC(=O)C(C)(C)NC(=O)[C@@H](N)Cc1c[nH]cn1)[C@@H](C)O)[C@@H](C)O)C(=O)N[C@@H](C)C(=O)N[C@@H](C)C(=O)N[C@@H](CCC(=O)O)C(=O)N[C@@H](CC(=O)O)C(=O)N[C@@H](Cc1ccccc1)C(=O)N[C@H](C(=O)N[C@@H](CCC(=O)O)C(=O)N[C@@H](Cc1c[nH]c2ccccc12)C(=O)N[C@@H](CC(C)C)C(=O)N[C@@H](CCC(=O)O)C(=O)N[C@@H](CO)C(=O)N[C@@H](C)C(N)=O)C(C)C)C(=O)O) [Compound 16]
0.17 nM,0.3 nM,–,–,–,0.19 nM,0.31 ratio,0.61 nM,HXQGTFTSDYSKYLDEXAAKDFIEWLESA (Aib at position 2; Lys 17 K(Hexadecanoyl-isoGlu); C-terminal amide (-NH2)) [Compound 15]
0.15 nM,0.41 nM,0.31 nM,1.94 ratio,0.16 nM,–,–,–,HXQGTFTSDYSKYLDEXAAKDFIEWLESA (D-Ser at position 2; Lys 17 K(Hexadecanoyl-isoGlu); C-terminal amide (-NH2)) [Compound 25]
0.39 nM,0.27 nM,0.23 nM,0.34 ratio,0.68 nM,–,–,–,HXQGTFTSDYSKYLEEXAAKDFIEWLESA (Aib at position 2; Lys 17 K(Hexadecanoyl-isoGlu); C-terminal amide (-NH2)) [Compound 20]
3.4 nM,0.3 nM,0.12 nM,0.09 ratio,1.32 nM,–,–,–,H-H[Aib]QGTFTSDYSKYLESK([γGlu-Palmitoyl])AAEDFIEWLESA-NH2 (SMILES CCCCCCCCCCCCCCCC(=O)N[C@@H](CCC(=O)NCCCC[C@H](NC(=O)[C@H](CO)NC(=O)[C@H](CCC(=O)O)NC(=O)[C@H](CC(C)C)NC(=O)[C@H](Cc1ccc(O)cc1)NC(=O)[C@H](CCCCN)NC(=O)[C@H](CO)NC(=O)[C@H](Cc1ccc(O)cc1)NC(=O)[C@H](CC(=O)O)NC(=O)[C@H](CO)NC(=O)[C@@H](NC(=O)[C@H](Cc1ccccc1)NC(=O)[C@@H](NC(=O)CNC(=O)[C@H](CCC(N)=O)NC(=O)C(C)(C)NC(=O)[C@@H](N)Cc1c[nH]cn1)[C@@H](C)O)[C@@H](C)O)C(=O)N[C@@H](C)C(=O)N[C@@H](C)C(=O)N[C@@H](CCC(=O)O)C(=O)N[C@@H](CC(=O)O)C(=O)N[C@@H](Cc1ccccc1)C(=O)N[C@H](C(=O)N[C@@H](CCC(=O)O)C(=O)N[C@@H](Cc1c[nH]c2ccccc12)C(=O)N[C@@H](CC(C)C)C(=O)N[C@@H](CCC(=O)O)C(=O)N[C@@H](CO)C(=O)N[C@@H](C)C(N)=O)[C@@H](C)CC)C(=O)O) [Compound 21]
0.06 nM,0.33 nM,0.27 nM,3.38 ratio,0.08 nM,–,–,–,H-H[Aib]HGTFTSDYSKYLEEK([γGlu-Palmitoyl])AAHEFVEWLESA-NH2 (SMILES CCCCCCCCCCCCCCCC(=O)N[C@@H](CCC(=O)NCCCC[C@H](NC(=O)[C@H](CCC(=O)O)NC(=O)[C@H](CCC(=O)O)NC(=O)[C@H](CC(C)C)NC(=O)[C@H](Cc1ccc(O)cc1)NC(=O)[C@H](CCCCN)NC(=O)[C@H](CO)NC(=O)[C@H](Cc1ccc(O)cc1)NC(=O)[C@H](CC(=O)O)NC(=O)[C@H](CO)NC(=O)[C@@H](NC(=O)[C@H](Cc1ccccc1)NC(=O)[C@@H](NC(=O)CNC(=O)[C@H](Cc1c[nH]cn1)NC(=O)C(C)(C)NC(=O)[C@@H](N)Cc1c[nH]cn1)[C@@H](C)O)[C@@H](C)O)C(=O)N[C@@H](C)C(=O)N[C@@H](C)C(=O)N[C@@H](Cc1c[nH]cn1)C(=O)N[C@@H](CCC(=O)O)C(=O)N[C@@H](Cc1ccccc1)C(=O)N[C@H](C(=O)N[C@@H](CCC(=O)O)C(=O)N[C@@H](Cc1c[nH]c2ccccc12)C(=O)N[C@@H](CC(C)C)C(=O)N[C@@H](CCC(=O)O)C(=O)N[C@@H](CO)C(=O)N[C@@H](C)C(N)=O)C(C)C)C(=O)O) [Compound 19]
0.1 nM,0.72 nM,–,–,–,0.53 nM,0.98 ratio,0.54 nM,H-H[Aib]QGTFTSDYSKYLDEK([γGlu-Palmitoyl])RAKDFIEWLLSA-OH (SMILES CCCCCCCCCCCCCCCC(=O)N[C@@H](CCC(=O)NCCCC[C@H](NC(=O)[C@H](CCC(=O)O)NC(=O)[C@H](CC(=O)O)NC(=O)[C@H](CC(C)C)NC(=O)[C@H](Cc1ccc(O)cc1)NC(=O)[C@H](CCCCN)NC(=O)[C@H](CO)NC(=O)[C@H](Cc1ccc(O)cc1)NC(=O)[C@H](CC(=O)O)NC(=O)[C@H](CO)NC(=O)[C@@H](NC(=O)[C@H](Cc1ccccc1)NC(=O)[C@@H](NC(=O)CNC(=O)[C@H](CCC(N)=O)NC(=O)C(C)(C)NC(=O)[C@@H](N)Cc1c[nH]cn1)[C@@H](C)O)[C@@H](C)O)C(=O)N[C@@H](CCCNC(=N)N)C(=O)N[C@@H](C)C(=O)N[C@@H](CCCCN)C(=O)N[C@@H](CC(=O)O)C(=O)N[C@@H](Cc1ccccc1)C(=O)N[C@H](C(=O)N[C@@H](CCC(=O)O)C(=O)N[C@@H](Cc1c[nH]c2ccccc12)C(=O)N[C@@H](CC(C)C)C(=O)N[C@@H](CC(C)C)C(=O)N[C@@H](CO)C(=O)N[C@@H](C)C(=O)O)[C@@H](C)CC)C(=O)O) [Compound 14]
